Test [1] deals with SARS-CoV-2 Delta spike antigen of the SPR column (construct not stated) (SARS-CoV-2). The experiment in a line: SPR. For orientation: SPR reads the build-up and loss of mass on a sensor chip optically.
In test [2] the target is SARS-CoV-2 Omicron BA.1 spike antigen of the SPR column (construct not stated) (SARS-CoV-2). Description: SPR.

B1: YB9-258 (antibody, V domains shown)
VH: EVQLVESGGGLIQPGGSLRLSCAASGLTVSSNYMHWVRQAPGKGLEWVSVLYAGGSAFYADSVKGRFTISRNNSKNTLYLQMNSLRAEDTAIYYCARGLGDYLDSWGQGTLVTVSS
VL: DIQMTQSPSSVSASVGDRVTITCRASQGIGSWLAWYQQKPGKAPQLLIYAASTLQSGVPPRFSGSGSGTDFTLTITSLQPEDFASYYCQQANSVLALTFGGGTKVEIK
As usually defined, the Kd is the equilibrium constant for the complex coming apart. Lower therefore signals a tighter complex. As for B1, the Kd in test [1] was 0.00391 nM; in test [2], 6.06 nM.

Source of the values: article PMC9951844.
